The DeepSol protein solubility set

experiment: soluble on expression in E. coli; label from the status in PepcDB or PDB records

| Sequence | soluble on expression in E. coli |
| --- | --- |
| MGSDKIHHHHHHMKWLLFPARIVARTRPNLFSLYRRSVSQYLRPRTIQNLQSMAQTPELKTKLFKPLVWIDCEMTGLDHVNDRIIEICCIITDGHLAPVKAADGQGDSHYESVIHYGPEVMNKMNEWCIEHHGNSGLTAKVLASEKTLAQVEDELLEYIQRYIPDKNVGVLAGNSVHMDRLFMVREFPKVIDHLFYRIVDVSSIMEVARRHNPALQARNPKKEAAHTAYSDIKESIAQLQWYMDNYLKPPQETESVESIGSEQPESPSSSTSSLKRQRTDF | not soluble |
| MGSDKIHHHHHHMPKRRLPSLNALRAFESAARNQSMTRAAEELCVTHSAISRHVAKLEDYLNAKLFERGHQQVVLTKRGAAYASRLQVLFDQIQDVTAEYFYARPDNASLRIGVLSTFAMRFLIPRLARFKKLYPEITLQVESAHEHVSPRDEEVDVAIWFGNGDWPGLVSEHLFHEELVPVGSPTLLAGHELGNPDDLESFLLLHAAARHDDWQRWLSATGATRVDGYKGLKLEYSGLAYQGAVDGLGLAMAQTLFVQEDLANRRLVAALPQRVKTGRSYYLVHNEMKSEQPVILRFSEWLKDEVRKTIEEIDRTQAEHIEVV | not soluble |
| MKSLQSSLGNIETFKLDELCPKHEIQLTQIKGERHVVVGWNENGEAIKEVRCIPPYCEQCQEEQKKQDEEDAIADNLNAKLYMQTYNVLMSNKSYVADEFKTKTFDDFNAVTSEEKRFLEFAKGQVQKYLDGMRGNTLITGGTGIGKTLLSVAIAKGINEGYKTKGEPKSVLFVSLTEMIKQIKEGWNYGKGATLTEFEATELMKSVDYLIIDDLGAKNAVIKPKSDWEQDLLFDVLNNRENTIFNTNLDSDELKIVYNERNYSRILKGLEGNTFKAFGIKYKRYSLNQLKSNM | not soluble |
| MKVGVIGASEMAGSAIYKLAKQNLEIDVTGIVRHESKAKKVLGDDAKLIVGDIFALSDNILDKFDVIIDAFGTDPKNAEEHVILAKKLINLVRKNKIRVIFILGAGSLHTGDDEHLVVDDIAQMDNADTWINTPRQQLKELEYLNSIDDVDWLGISPALQFEAGPATEYIEGTDELLYNKDGDSKLTSGTMATVVIKETVDSVHHQERITIANALEHHHHHH | soluble |
| MGSDKIHHHHHHMPKSVRAENISRILKRIMKSPVSRVELAEELGLTKTTVGEIAKIFLEKGIVVEEKDSPKGVGRPTKSLKISPNCAYVLGIEVTRDEIAACLIDASMNILAHEAHPLPSQSDREETLNVMYRIIDRAKDMMEKLGSKLSALTVAAPGPIDTERGIIIDPRNFPLSQIPLANLLKEKYGIEVWVENDADMGAVGEKWYTKRDDSFAWILTGKGIGAGIIIDGELYRGENGYAGEIGYTRVFNGNEYVFLEDVCNENVVLKHVLSMGFSSLAEARDSGDVRVKEYFDDIARYFSIGLLNLIHLFGISKIVIGGFFKELGENFLKKIKIEVETHLLYKHSVDMSFSKVQEPVIAFGAAVHALENYLERVTTS | soluble |
| GSHMPVVHVIDVESGNLQSLTNAIEHLGYEVQLVKSPKDFNISGTSRLILPGVGNYGHFVDNLFNRGFEKPIREYIESGKPIMGICVGLQALFAGSVESPKSTGLNYIDFKLSRFDDSEKPVPEIGWNSCIPSENLFFGLDPYKRYYFVHSFAAILNSEKKKNLENDGWKIAKAKYGSEEFIAAVNKNNIFATQFHPEKSGKAGLNVIENFLKQQSPPIPNYSAEEKELLMNDYSNYGLTRRIIACLDVRTNDQGDLVVTKGDQYDVREKSDGKGVRNLGKPVQLAQKYYQQGADEVTFLNITSFRDCPLKDTPMLEVLKQAAKTVFVPLTVGGGIKDIVDVDGTKIPALEVASLYFRSGADKVSIGTDAVYAAEKYYELGNRGDGTSPIETISKAYGAQAVVISVDPKRVYVNSQADTKNKVFETEYPGPNGEKYCWYQCTIKGGRESRDLGVWELTRACEALGAGEILLNCIDKDGSNSGYDLELIEHVKDAVKIPVIASSGAGVPEHFEEAFLKTRADACLGAGMFHRGEFTVNDVKEYLLEHGLKVRMDEE | soluble |
| MAQPIVVAALYKFVTLEDYVNLREPLLQAMLDNGIKGTLLIAEEGINGTVSGSREGIDGLLAWLKNDPRMVDIDHKESYCDEQPFYRTKVKLKKEIVTLGVPGVDPNKKVGTYVEPQDWNALISDPEVLLIDTRNDYEVSIGTFEGAIDPKTTSFREFPDYIKAHFDPSKHKKVAMFCTGGIRCEKASSYMLSEGFDEVFHLKGGILKYLEEVPQQESKWQGDCFVFDNRVTVRHDLSEGDYDQCHACRTPVSVEDRASEHYVPGISCPHCWDKLSEKTRRSAIDRQKQIELAKARNMPHPIGYNYKQSSSEALEHHHHHH | not soluble |
